From patent US20030148958A1 (PROCTER AND GAMBLE, published 2003)
Ends that are not written are not given here.

What was measured:
[1] = target: T1, CRF2R; experiment: cell-based or functional assay
T1 sequence (Q13324 whole entry, species assumed, looked up): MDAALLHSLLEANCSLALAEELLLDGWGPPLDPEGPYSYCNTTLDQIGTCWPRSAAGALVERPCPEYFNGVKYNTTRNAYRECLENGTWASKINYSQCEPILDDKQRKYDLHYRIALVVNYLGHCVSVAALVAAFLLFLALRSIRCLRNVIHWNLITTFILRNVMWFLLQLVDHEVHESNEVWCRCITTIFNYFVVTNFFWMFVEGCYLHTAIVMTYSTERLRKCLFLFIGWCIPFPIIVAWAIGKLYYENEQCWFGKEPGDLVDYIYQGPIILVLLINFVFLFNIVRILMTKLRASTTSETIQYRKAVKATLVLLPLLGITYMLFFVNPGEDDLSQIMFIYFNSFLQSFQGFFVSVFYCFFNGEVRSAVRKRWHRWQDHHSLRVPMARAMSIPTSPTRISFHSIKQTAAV

[2] = target: CRF1R; experiment: cell-based or functional assay
Throughout, for CRF1R Emax %: reference of the scale not given here.
Throughout, for CRF2R Emax %: reference of the scale not given here.

B1: SEQ ID NO 384 (peptide)
peptide: DNPSLSIDVPLLLLRTLLELEKTQSQRERAEQNARIFARV-NH2
CRF2R EC50 [1]: 7.1 nM
CRF2R Emax % [1]: 97.3%
CRF1R EC50 [2]: 1000 nM
CRF1R Emax % [2]: 70.3%

B2: SEQ ID NO 387 (peptide)
peptide: DNPSLSIDVPLYLLRTLLELEKTQSQRERAEQNARIFARV-NH2
CRF2R EC50 [1]: 17.9 nM
CRF2R Emax % [1]: 100%
CRF1R EC50 [2]: 1000 nM
CRF1R Emax % [2]: 50.1%

B3: SEQ ID NO 373 (peptide)
peptide: ZGPPISIDVPYWLLRKVIEIEKQEKEKQQAANNARLLARI
modifications: C-terminal amide
CRF2R EC50 [1]: 11.5 nM
CRF2R Emax % [1]: 100%
CRF1R EC50 [2]: 1000 nM
CRF1R Emax % [2]: 9%

B4: SEQ ID NO 379 (peptide)
peptide: ZGPPISIDVPIYLLRKVIEIEKQEKEKQQAANNARLLARI
modifications: C-terminal amide
CRF2R EC50 [1]: 70.5 nM
CRF2R Emax % [1]: 94%
CRF1R EC50 [2]: 1000 nM
CRF1R Emax % [2]: 8%

B5: SEQ ID NO 375 (peptide)
peptide: ZGPPISIDVPYQLLRKVIEIEKQEKEKQQAANNARLLARI
modifications: C-terminal amide
CRF2R EC50 [1]: 11.5 nM
CRF2R Emax % [1]: 100%
CRF1R EC50 [2]: 1000 nM
CRF1R Emax % [2]: 22%

B6: SEQ ID NO 378 (peptide)
peptide: ZGPPISIDVPYYLLRKVIEIEKQEKEKQQAANNARLLARI
modifications: C-terminal amide
CRF2R EC50 [1]: 14.9 nM
CRF2R Emax % [1]: 100%
CRF1R EC50 [2]: 1000 nM
CRF1R Emax % [2]: 36%

B7: SEQ ID NO 383 (peptide)
peptide: ZGPPISIDVPFQLLRKVIEIEKQEKEKQQAANNARLLARI
modifications: C-terminal amide
CRF2R EC50 [1]: 9.31 nM
CRF2R Emax % [1]: 96%
CRF1R EC50 [2]: 1000 nM
CRF1R Emax % [2]: 55%

B8: SEQ ID NO 381 (peptide)
peptide: ZGPPISIDVPLQLLRKVIEIEKQEKEKQQAANNARLLARI
modifications: C-terminal amide
CRF2R EC50 [1]: 12.7 nM
CRF2R Emax % [1]: 99%
CRF1R EC50 [2]: 1000 nM
CRF1R Emax % [2]: 27%

B9: SEQ ID NO 382 (peptide)
peptide: ZGPPISIDVPFQLLRKVIEIEKQEKEKQQAANNARLLDTI
modifications: C-terminal amide
CRF2R EC50 [1]: 39.5 nM
CRF2R Emax % [1]: 100%
CRF1R EC50 [2]: 1000 nM
CRF1R Emax % [2]: 8%

B10: SEQ ID NO 380 (peptide)
peptide: ZGPPISIDVPLQLLRKVIEIEKQEKEKQQAANNARLLDTI
modifications: C-terminal amide
CRF2R EC50 [1]: 19 nM
CRF2R Emax % [1]: 100%
CRF1R EC50 [2]: 1000 nM
CRF1R Emax % [2]: 16%

B11: SEQ ID NO 377 (peptide)
peptide: ZGPPISIDVPYHLLRKVIEIEKQEKEKQQAANNARLLARI
modifications: C-terminal amide
CRF2R EC50 [1]: 19.2 nM
CRF2R Emax % [1]: 83%
CRF1R EC50 [2]: 1000 nM
CRF1R Emax % [2]: 25%

B12: SEQ ID NO 374 (peptide)
peptide: ZGPPISIDVPYQLLRKVIEIEKQEKEKQQAANNARLLDTI
modifications: C-terminal amide
CRF2R EC50 [1]: 15.8 nM
CRF2R Emax % [1]: 91%
CRF1R EC50 [2]: 1000 nM
CRF1R Emax % [2]: 11%

B13: SEQ ID NO 225 (peptide)
peptide: ZGPPISIDLPYYLLRKMIEIEKQEKEKQQAANNALLLATI
modifications: C-terminal amide
CRF2R EC50 [1]: 4.8 nM
CRF2R Emax % [1]: 89%
CRF1R EC50 [2]: 220 nM
CRF1R Emax % [2]: 97%

B14: SEQ ID NO 376 (peptide)
peptide: ZGPPISIDVPYHLLRKVIEIEKQEKEKQQAANNARLLDTI
modifications: C-terminal amide
CRF2R EC50 [1]: 52.5 nM
CRF2R Emax % [1]: 100%
CRF1R EC50 [2]: 1000 nM
CRF1R Emax % [2]: 8%

B15: SEQ ID NO 214 (peptide)
peptide: IVLSLDVVIGLLQILLEQARARAAREQATTNARILARV-NH2
CRF2R EC50 [1]: 74.3 nM
CRF2R Emax % [1]: 60%
CRF1R EC50 [2]: 100 nM
CRF1R Emax % [2]: 4%

B16: SEQ ID NO 212 (peptide)
peptide: ZGPPISIDLPHQLLRKMIEIEKQEKEKQQAANNRLLLDTI
modifications: C-terminal amide
CRF2R EC50 [1]: 21.3 nM
CRF2R Emax % [1]: 100%
CRF1R EC50 [2]: 445 nM
CRF1R Emax % [2]: 100%

B17: SEQ ID NO 216 (peptide)
peptide: ZGPPISIDLPWWLLRKMIEIEKQEKEKQQAANNRLLLDTI
modifications: C-terminal amide
CRF2R EC50 [1]: 9.9 nM
CRF2R Emax % [1]: 90%
CRF1R EC50 [2]: 49.8 nM
CRF1R Emax % [2]: 98%

B18: SEQ ID NO 220 (peptide)
peptide: ZGPPISIDLPYFLLRKMIEIEKQEKEKQQAANNRLLLDTI
modifications: C-terminal amide
CRF2R EC50 [1]: 4.1 nM
CRF2R Emax % [1]: 98%
CRF1R EC50 [2]: 63.6 nM
CRF1R Emax % [2]: 81%

B19: SEQ ID NO 219 (peptide)
peptide: ZGPPISIDLPHFLLRKMIEIEKQEKEKQQAANNRLLLDTI
modifications: C-terminal amide
CRF2R EC50 [1]: 7.8 nM
CRF2R Emax % [1]: 98%
CRF1R EC50 [2]: 80.9 nM
CRF1R Emax % [2]: 100%

B20: SEQ ID NO 218 (peptide)
peptide: ZGPPISIDLPLWLLRKMIEIEKQEKEKQQAANNRLLLDTI
modifications: C-terminal amide
CRF2R EC50 [1]: 4.8 nM
CRF2R Emax % [1]: 96%
CRF1R EC50 [2]: 98.4 nM
CRF1R Emax % [2]: 100%

B21: SEQ ID NO 221 (peptide)
peptide: ZGPPISIDLPQFLLRKMIEIEKQEKEKQQAANNRLLLDTI
modifications: C-terminal amide
CRF2R EC50 [1]: 8.5 nM
CRF2R Emax % [1]: 100%
CRF1R EC50 [2]: 236 nM
CRF1R Emax % [2]: 100%

B22: SEQ ID NO 213 (peptide)
peptide: ZGPPISIDLPQWLLRKMIEIEKQEKEKQQAANNRLLLDTI
modifications: C-terminal amide
CRF2R EC50 [1]: 22.3 nM
CRF2R Emax % [1]: 99%
CRF1R EC50 [2]: 1000 nM
CRF1R Emax % [2]: 76%

B23: SEQ ID NO 226 (peptide)
peptide: ZGPPISIDLPYYLLRKMIEIEKQEKEKQQAANNALLLDTI
modifications: C-terminal amide
CRF2R EC50 [1]: 7.6 nM
CRF2R Emax % [1]: 100%
CRF1R EC50 [2]: 315 nM
CRF1R Emax % [2]: 95%

B24: SEQ ID NO 224 (peptide)
peptide: ZGPPISIDLPQYLLRKMIEIEKQEKEKQQAANNALLLDTI
modifications: C-terminal amide
CRF2R EC50 [1]: 26.9 nM
CRF2R Emax % [1]: 100%
CRF1R EC50 [2]: 1000 nM
CRF1R Emax % [2]: 27%

B25: SEQ ID NO 222 (peptide)
peptide: ZGPPISIDLPAFLLRKMIEIEKQEKEKQQAANNRLLLDTI
modifications: C-terminal amide
CRF2R EC50 [1]: 9.4 nM
CRF2R Emax % [1]: 100%
CRF1R EC50 [2]: 384 nM
CRF1R Emax % [2]: 95%

B26: SEQ ID NO 223 (peptide)
peptide: ZGPPISIDLPFFLLRKMIEIEKQEKEKQQAANNRLLLDTI
modifications: C-terminal amide
CRF2R EC50 [1]: 3 nM
CRF2R Emax % [1]: 92%
CRF1R EC50 [2]: 48.1 nM
CRF1R Emax % [2]: 81%

B27: SEQ ID NO 217 (peptide)
peptide: ZGPPISIDLPFWLLRKMIEIEKQEKEKQQAANNRLLLDTI
modifications: C-terminal amide
CRF2R EC50 [1]: 4.7 nM
CRF2R Emax % [1]: 95%
CRF1R EC50 [2]: 94.7 nM
CRF1R Emax % [2]: 100%

B28: SEQ ID NO 215 (peptide)
peptide: ZGPPISIDLPYWLLRKMIEIEKQEKEKQQAANNRLLLDTI
modifications: C-terminal amide
CRF2R EC50 [1]: 4 nM
CRF2R Emax % [1]: 100%
CRF1R EC50 [2]: 188 nM
CRF1R Emax % [2]: 100%

B29: SEQ ID NO 386 (peptide)
peptide: DNPSLSIDVPFFLLRTLLELEKTQSQRERAEQNARIFARV-NH2
CRF2R EC50 [1]: 8.7 nM
CRF2R Emax % [1]: 96%
CRF1R EC50 [2]: 1000 nM
CRF1R Emax % [2]: 78.2%

B30: SEQ ID NO 385 (peptide)
peptide: DNPSLSIDVPLFLLRTLLELEKTQSQRERAEQNARIFARV-NH2
CRF2R EC50 [1]: 10.2 nM
CRF2R Emax % [1]: 100%
CRF1R EC50 [2]: 1000 nM
CRF1R Emax % [2]: 46%
